Measured values taken from paper PMC7173111.

Molecular target: HBc-YFP fusion protein (Hepatitis B virus) (UniProt P03146)
Experiment: FRET or BRET

Chain of UniProt P03146 (P03146 whole entry, the tested form may be a part): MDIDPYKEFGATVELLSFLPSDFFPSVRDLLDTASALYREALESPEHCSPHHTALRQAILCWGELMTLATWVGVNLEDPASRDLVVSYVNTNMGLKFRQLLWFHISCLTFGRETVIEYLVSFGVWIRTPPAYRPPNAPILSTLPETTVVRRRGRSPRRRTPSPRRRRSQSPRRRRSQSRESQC

A3G-CFP fusion protein (from UniProt Q9HC16 1-384) (natural protein)
FRET efficiency (E EFF, %): 18.5% | FRET ratio (FR): 1.68
